# Experimental data published in patent US20220226381A1.
# Where two headings read alike, the source gives them in different places.
# What was measured:
# [1] = biological target: CD19 on CD19+ Raji B cells (UniProt P15391); test: cell-based or functional assay
# [2] = biological target: CD19 on CD19+ Raji B cells (UniProt P15391); test: cell-based or functional assay; remark: listed apart in the source
# Chain of UniProt P15391 (P15391 20-556 limits assumed): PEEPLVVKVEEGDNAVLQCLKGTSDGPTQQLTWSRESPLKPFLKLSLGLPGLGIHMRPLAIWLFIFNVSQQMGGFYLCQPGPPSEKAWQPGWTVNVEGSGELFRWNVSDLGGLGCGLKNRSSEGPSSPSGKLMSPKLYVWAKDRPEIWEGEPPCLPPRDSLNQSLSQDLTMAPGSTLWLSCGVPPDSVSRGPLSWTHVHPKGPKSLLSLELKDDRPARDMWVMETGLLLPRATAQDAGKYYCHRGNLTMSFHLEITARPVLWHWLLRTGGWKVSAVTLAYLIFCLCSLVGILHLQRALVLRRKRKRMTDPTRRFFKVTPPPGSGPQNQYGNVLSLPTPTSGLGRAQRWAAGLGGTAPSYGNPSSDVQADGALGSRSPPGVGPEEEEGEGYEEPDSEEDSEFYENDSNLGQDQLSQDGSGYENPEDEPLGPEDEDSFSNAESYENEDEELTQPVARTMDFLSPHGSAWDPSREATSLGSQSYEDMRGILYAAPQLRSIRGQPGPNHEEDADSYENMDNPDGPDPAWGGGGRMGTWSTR
substance,measurement,setting,value
"anti-CD19 CAR (anti-CD19 CAR cassette as described in WO 2012/079000), expressed on transduced CD4+ T-cells","change in activated cells in the population (CD25 and CD69 staining, flow cytometry, 24 h co-culture)",[1],3.9 to 12.1%
same,"change in activated cells in the population (CD25 and CD69 staining, flow cytometry, 24 h co-culture)",[2],0.9 to 84.8%
